Source: patent US9708383 (Novo Nordisk, dated 2017)
*1 amine or outer side, *2 acyl side, *3 side chain or, on linkers, in order; H or OH if unused. Where no end group is shown, it is not given here. Side-chain parts run from the residue outwards. [ ]: non-standard residue; d: D form. The star is where a group is joined. Decanoyl(10-(4-HOOC-PhO)) = O=C(O)c1ccc(OCCCCCCCCCC(=O)*)cc1; C16 diacid = O=C(O)CCCCCCCCCCCCCCC(=O)*; γGlu = O=C(O)[C@H](CCC(=O)[*:2])N[*:1]; Desaminohistidyl = O=C(CCc1c[nH]cn1)*; C12 diacid = O=C(O)CCCCCCCCCCC(=O)*; 13‑carboxytridecanoyl = C14 diacid; AEEA = NCCOCCOCC(=O)O; Aib = CC(C)(N)C(=O)O

Target: T1, human GLP-1 receptor (human, UniProt P43220 24-463)
T1 construct: whole, on cells; Used as purified membranes of the transfected hamster cells, not whole cells; also called hGLP-1
Assay: SPA, 2.0% vs 0.005% HSA

Q: H[Aib]EGTFTSDVSK([AEEA-AEEA-γGlu-C12 diacid])YLEEQAVRK([AEEA-AEEA-γGlu-C12 diacid])FIAHLVG was tested. Which “ratio IC50 high HSA/IC50 low HSA” value did it give?
A: Its value is over 1.

Q: With H[Aib]EGTFTSDVSK([AEEA-AEEA-γGlu-13‑carboxytridecanoyl])YLEEQAVRHFIAK([AEEA-AEEA-γGlu-13‑carboxytridecanoyl])LVG as the binder, how does the “ratio IC50 high HSA/IC50 low HSA” value read?
A: The value was over 1.

Q: For H[Aib]EGTFTSDVSK([AEEA-AEEA-γGlu-13‑carboxytridecanoyl])YLEEQAAREFIAK([AEEA-AEEA-γGlu-13‑carboxytridecanoyl])LVG [GLP-1 derivative of Example 16: [Aib8,Lys18,Glu22,Arg26,Lys31,Gly34]-GLP-1-(7-34)-peptide], which “ratio IC50 high HSA/IC50 low HSA” value is on record?
A: The value was over 1.

Q: Which “ratio IC50 high HSA/IC50 low HSA” value does the source give for H[Aib]EGTFTSDVSK([AEEA-AEEA-γGlu-C12 diacid])YLEEQAVHEFIAK([AEEA-AEEA-γGlu-C12 diacid])LVG [GLP-1 derivative of Example 27: [Aib8,Lys18,Glu22,Val25,His26,Lys31,Gly34]-GLP-1-(7-34)-peptide] here?
A: Its value is over 1.

Q: How did the “ratio IC50 high HSA/IC50 low HSA” value turn out when H[Aib]EGTFTSDVSK([AEEA-AEEA-γGlu-13‑carboxytridecanoyl])YLEEQAVREFIEK([AEEA-AEEA-γGlu-13‑carboxytridecanoyl])LVG [GLP-1 derivative of Example 6: [Aib8,Lys18,Glu22,Val25,Arg26,Glu30,Lys31,Gly34]-GLP-1-(7-34)-peptide] was run?
A: The value was over 1.

Q: H[Aib]EGTFTSDVSK([AEEA-AEEA-γGlu-13‑carboxytridecanoyl])YLEEQAVHEFIAK([AEEA-AEEA-γGlu-13‑carboxytridecanoyl])LVG [GLP-1 derivative of Example 7: [Aib8,Lys18,Glu22,Val25,His26,Lys31,Gly34]-GLP-1-(7-34)-peptide] was tested. Which “ratio IC50 high HSA/IC50 low HSA” value did it give?
A: The value was over 1.

Q: H[Aib]EGTFTSDVSK([AEEA-AEEA-γGlu-13‑carboxytridecanoyl])YLEERAVREFIAK([AEEA-AEEA-γGlu-13‑carboxytridecanoyl])LVG was tested. Which “ratio IC50 high HSA/IC50 low HSA” value did it give?
A: Its value is over 1.

Q: For [Desaminohistidyl][Aib]EGTFTSDVSK([AEEA-AEEA-γGlu-13‑carboxytridecanoyl])YLEEQAVREFIAK([AEEA-AEEA-γGlu-13‑carboxytridecanoyl])LVG [GLP-1 derivative of Example 21: [Imp7,Aib8,Lys18,Glu22,Val25,Arg26,Lys31,Gly34]-GLP-1-(7-34)-peptide], which “ratio IC50 high HSA/IC50 low HSA” value is on record?
A: Its value is over 1.

Q: How did the “ratio IC50 high HSA/IC50 low HSA” value turn out when [Desaminohistidyl]AEGTFTSDVSK([AEEA-AEEA-γGlu-Decanoyl(10-(4-HOOC-PhO))])YLEEQAAK([AEEA-AEEA-γGlu-Decanoyl(10-(4-HOOC-PhO))])EFIAWLVQGRG [GLP-1 derivative of Example 136: [Imp7,Lys18,Glu22,Gln34]-GLP-1-(7-37)-peptide] was run?
A: The value was over 1.

Q: Which “ratio IC50 high HSA/IC50 low HSA” value does the source give for [Desaminohistidyl]AEGTFTSDVSK([AEEA-AEEA-γGlu-Decanoyl(10-(4-HOOC-PhO))])YLEEQAAREFIAWLVRGRK([AEEA-AEEA-γGlu-Decanoyl(10-(4-HOOC-PhO))]) [GLP-1 derivative of Example 4: [Imp7,Lys18,Glu22,Arg26,Arg34,Lys37]-GLP-1-(7-37)-peptide] here?
A: Its value is over 1.

Q: How did the “ratio IC50 high HSA/IC50 low HSA” value turn out when [Desaminohistidyl]AEGTFTSDVSK([AEEA-AEEA-γGlu-C16 diacid])YLEEQAARK([AEEA-AEEA-γGlu-C16 diacid])FIAWLVQGRG [GLP-1 derivative of Example 147: [Imp7,Lys18,Glu22,Arg26,Lys27,Gln34]-GLP-1-(7-37)-peptide] was run?
A: Its value is over 1.

Q: [Desaminohistidyl]AEGTFTSDVSK([AEEA-AEEA-13‑carboxytridecanoyl])YLEEQAARK([AEEA-AEEA-13‑carboxytridecanoyl])FIAHLVG [GLP-1 derivative of Example 31: [Imp7,Lys18,Glu22,Arg26,Lys27,His31,Gly34]-GLP-1-(7-34)-peptide] was tested. Which “ratio IC50 high HSA/IC50 low HSA” value did it give?
A: The value was over 1.

Q: For [Desaminohistidyl]AEGTFTSDVSK([AEEA-AEEA-γGlu-C12 diacid])YLEEQAVREFIAK([AEEA-AEEA-γGlu-C12 diacid])LVG [GLP-1 derivative of Example 13: [Imp7,Lys18,Glu22,Val25,Arg26,Lys31,Gly34]-GLP-1-(7-34)-peptide], which “ratio IC50 high HSA/IC50 low HSA” value is on record?
A: The value was over 1.

Q: [Desaminohistidyl]AEGTFTSDVSK([AEEA-AEEA-γGlu-Decanoyl(10-(4-HOOC-PhO))])YLEEQAARK([AEEA-AEEA-γGlu-Decanoyl(10-(4-HOOC-PhO))])FIAHLVG [GLP-1 derivative of Example 33: [Imp7,Lys18,Glu22,Arg26,Lys27,His31,Gly34]-GLP-1-(7-34)-peptide] was tested. Which “ratio IC50 high HSA/IC50 low HSA” value did it give?
A: Its value is over 1.

Target: T1, human GLP-1 receptor
Assay: SPA, displacement of 125I-GLP-1(7-36)NH2, 0.005% HSA

Q: For H[Aib]EGTFTSDVSK([AEEA-AEEA-γGlu-C12 diacid])YLEEQAVRK([AEEA-AEEA-γGlu-C12 diacid])FIAHLVG, which IC50 is on record?
A: The IC50 was under 1 µM.

Q: How did the IC50 turn out when H[Aib]EGTFTSDVSK([AEEA-AEEA-γGlu-13‑carboxytridecanoyl])YLEEQAVRHFIAK([AEEA-AEEA-γGlu-13‑carboxytridecanoyl])LVG was run?
A: The IC50 was under 1 µM.

Q: For H[Aib]EGTFTSDVSK([AEEA-AEEA-γGlu-13‑carboxytridecanoyl])YLEEQAAREFIAK([AEEA-AEEA-γGlu-13‑carboxytridecanoyl])LVG [GLP-1 derivative of Example 16: [Aib8,Lys18,Glu22,Arg26,Lys31,Gly34]-GLP-1-(7-34)-peptide], which IC50 is on record?
A: Its IC50 is under 1 µM.

Q: H[Aib]EGTFTSDVSK([AEEA-AEEA-γGlu-C12 diacid])YLEEQAVHEFIAK([AEEA-AEEA-γGlu-C12 diacid])LVG [GLP-1 derivative of Example 27: [Aib8,Lys18,Glu22,Val25,His26,Lys31,Gly34]-GLP-1-(7-34)-peptide] was tested. Which IC50 did it give?
A: The IC50 was under 1 µM.

Q: How did the IC50 turn out when H[Aib]EGTFTSDVSK([AEEA-AEEA-γGlu-13‑carboxytridecanoyl])YLEEQAVREFIEK([AEEA-AEEA-γGlu-13‑carboxytridecanoyl])LVG [GLP-1 derivative of Example 6: [Aib8,Lys18,Glu22,Val25,Arg26,Glu30,Lys31,Gly34]-GLP-1-(7-34)-peptide] was run?
A: Its IC50 is under 1 µM.

Q: H[Aib]EGTFTSDVSK([AEEA-AEEA-γGlu-13‑carboxytridecanoyl])YLEEQAVHEFIAK([AEEA-AEEA-γGlu-13‑carboxytridecanoyl])LVG [GLP-1 derivative of Example 7: [Aib8,Lys18,Glu22,Val25,His26,Lys31,Gly34]-GLP-1-(7-34)-peptide] was tested. Which IC50 did it give?
A: Its IC50 is under 1 µM.

Q: With H[Aib]EGTFTSDVSK([AEEA-AEEA-γGlu-13‑carboxytridecanoyl])YLEERAVREFIAK([AEEA-AEEA-γGlu-13‑carboxytridecanoyl])LVG as the binder, how does the IC50 read?
A: Its IC50 is under 1 µM.

Q: [Desaminohistidyl][Aib]EGTFTSDVSK([AEEA-AEEA-γGlu-13‑carboxytridecanoyl])YLEEQAVREFIAK([AEEA-AEEA-γGlu-13‑carboxytridecanoyl])LVG [GLP-1 derivative of Example 21: [Imp7,Aib8,Lys18,Glu22,Val25,Arg26,Lys31,Gly34]-GLP-1-(7-34)-peptide] was tested. Which IC50 did it give?
A: The IC50 was under 1 µM.

Q: [Desaminohistidyl]AEGTFTSDVSK([AEEA-AEEA-γGlu-Decanoyl(10-(4-HOOC-PhO))])YLEEQAAK([AEEA-AEEA-γGlu-Decanoyl(10-(4-HOOC-PhO))])EFIAWLVQGRG [GLP-1 derivative of Example 136: [Imp7,Lys18,Glu22,Gln34]-GLP-1-(7-37)-peptide] was tested. Which IC50 did it give?
A: Its IC50 is under 1 µM.

Q: [Desaminohistidyl]AEGTFTSDVSK([AEEA-AEEA-γGlu-Decanoyl(10-(4-HOOC-PhO))])YLEEQAAREFIAWLVRGRK([AEEA-AEEA-γGlu-Decanoyl(10-(4-HOOC-PhO))]) [GLP-1 derivative of Example 4: [Imp7,Lys18,Glu22,Arg26,Arg34,Lys37]-GLP-1-(7-37)-peptide] was tested. Which IC50 did it give?
A: Its IC50 is under 1 µM.

Q: How did the IC50 turn out when [Desaminohistidyl]AEGTFTSDVSK([AEEA-AEEA-γGlu-C16 diacid])YLEEQAARK([AEEA-AEEA-γGlu-C16 diacid])FIAWLVQGRG [GLP-1 derivative of Example 147: [Imp7,Lys18,Glu22,Arg26,Lys27,Gln34]-GLP-1-(7-37)-peptide] was run?
A: Its IC50 is under 1 µM.

Q: Which IC50 does the source give for [Desaminohistidyl]AEGTFTSDVSK([AEEA-AEEA-13‑carboxytridecanoyl])YLEEQAARK([AEEA-AEEA-13‑carboxytridecanoyl])FIAHLVG [GLP-1 derivative of Example 31: [Imp7,Lys18,Glu22,Arg26,Lys27,His31,Gly34]-GLP-1-(7-34)-peptide] here?
A: The IC50 was under 1 µM.

Q: How did the IC50 turn out when [Desaminohistidyl]AEGTFTSDVSK([AEEA-AEEA-γGlu-C12 diacid])YLEEQAVREFIAK([AEEA-AEEA-γGlu-C12 diacid])LVG [GLP-1 derivative of Example 13: [Imp7,Lys18,Glu22,Val25,Arg26,Lys31,Gly34]-GLP-1-(7-34)-peptide] was run?
A: Its IC50 is under 1 µM.

Q: How did the IC50 turn out when [Desaminohistidyl]AEGTFTSDVSK([AEEA-AEEA-γGlu-Decanoyl(10-(4-HOOC-PhO))])YLEEQAARK([AEEA-AEEA-γGlu-Decanoyl(10-(4-HOOC-PhO))])FIAHLVG [GLP-1 derivative of Example 33: [Imp7,Lys18,Glu22,Arg26,Lys27,His31,Gly34]-GLP-1-(7-34)-peptide] was run?
A: Its IC50 is under 1 µM.
